In patent publication US20100120685A1 (WASHINGTON UNIVERSITY, published 2010):
Blank lines part the entries; values can stand above or below the binder they belong to. No end group written: not given here.

Columns and labels:
[1] = molecular target: LRP5 (as used in Example 11) (UniProt O75197 32-1615, limits assumed); test: competition with 125I-Mesd for LRP5
[2] = molecular target: LRP6 (as used in Example 11) (UniProt O75581 20-1613, limits assumed); test: competition with 125I-DKK1 for LRP6
LRP6 (as used in Example 11), sequence (O75581 20-1613 limits assumed): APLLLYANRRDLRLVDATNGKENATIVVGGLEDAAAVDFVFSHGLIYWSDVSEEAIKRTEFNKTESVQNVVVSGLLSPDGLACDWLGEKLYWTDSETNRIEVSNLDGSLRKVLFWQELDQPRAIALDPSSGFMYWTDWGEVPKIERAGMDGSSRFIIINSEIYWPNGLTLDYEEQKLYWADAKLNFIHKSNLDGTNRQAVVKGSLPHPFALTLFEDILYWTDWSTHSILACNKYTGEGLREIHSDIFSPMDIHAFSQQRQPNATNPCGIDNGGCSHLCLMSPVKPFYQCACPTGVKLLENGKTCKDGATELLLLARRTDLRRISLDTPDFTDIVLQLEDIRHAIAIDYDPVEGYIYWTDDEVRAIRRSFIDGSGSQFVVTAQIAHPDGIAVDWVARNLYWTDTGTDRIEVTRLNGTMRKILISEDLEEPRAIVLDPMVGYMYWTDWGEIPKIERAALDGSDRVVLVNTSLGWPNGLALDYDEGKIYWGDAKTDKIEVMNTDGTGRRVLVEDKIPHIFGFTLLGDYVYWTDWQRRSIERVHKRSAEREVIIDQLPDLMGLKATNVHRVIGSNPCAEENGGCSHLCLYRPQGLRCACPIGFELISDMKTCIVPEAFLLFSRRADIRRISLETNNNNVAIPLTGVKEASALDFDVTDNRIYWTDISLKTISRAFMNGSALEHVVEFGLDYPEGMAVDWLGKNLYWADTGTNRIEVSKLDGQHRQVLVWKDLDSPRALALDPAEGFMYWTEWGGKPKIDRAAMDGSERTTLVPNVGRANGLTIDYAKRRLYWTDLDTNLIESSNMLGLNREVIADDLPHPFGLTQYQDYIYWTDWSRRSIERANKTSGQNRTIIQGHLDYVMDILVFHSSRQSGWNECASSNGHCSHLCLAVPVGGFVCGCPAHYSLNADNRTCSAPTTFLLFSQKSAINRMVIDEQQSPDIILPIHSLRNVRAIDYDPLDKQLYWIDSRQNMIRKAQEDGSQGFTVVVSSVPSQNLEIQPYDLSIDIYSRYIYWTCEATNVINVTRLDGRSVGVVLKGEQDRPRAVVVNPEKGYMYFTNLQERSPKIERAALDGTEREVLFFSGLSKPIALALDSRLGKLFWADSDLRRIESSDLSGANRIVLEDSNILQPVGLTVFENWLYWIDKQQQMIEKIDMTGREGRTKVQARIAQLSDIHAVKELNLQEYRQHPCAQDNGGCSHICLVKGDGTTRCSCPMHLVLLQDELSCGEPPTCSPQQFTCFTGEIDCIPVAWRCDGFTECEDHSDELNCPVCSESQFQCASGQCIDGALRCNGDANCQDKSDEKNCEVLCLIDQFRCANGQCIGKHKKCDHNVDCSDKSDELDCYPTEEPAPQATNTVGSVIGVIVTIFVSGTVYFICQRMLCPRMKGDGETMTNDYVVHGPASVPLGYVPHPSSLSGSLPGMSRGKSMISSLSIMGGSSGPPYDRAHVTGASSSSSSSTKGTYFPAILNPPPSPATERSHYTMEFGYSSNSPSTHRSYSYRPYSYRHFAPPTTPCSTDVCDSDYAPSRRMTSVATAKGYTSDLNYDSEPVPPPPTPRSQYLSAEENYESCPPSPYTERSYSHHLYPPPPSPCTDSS

[3] = molecular target: T1, HA-tagged LRP6 on LRP6-transduced HT1080 cells (UniProt O75581 20-1613, limits assumed); test: 125I-Mesd saturation binding to LRP6-transduced HT1080 cells, 3 h at 4 C, Scatchard analysis
T1 construct: whole, on cells; the only LRP6 cDNA named in the materials is human; also called mature LRP6 at the cell surface; cell surface LRP6; not shown: HA tag
T1 sequence (O75581 20-1613 limits assumed): as above
Protocol: To examine whether Mesd binds with high affinity to most members of the LDLR family at the cell surface, we performed cell surface ligand binding experiments with cells stably transduced with LRP6 cDNA. Human HT1080 cells, which express undetectable levels of LRP6, were transduced with a viral vector alone (pLNCX2) or with vector containing LRP6 cDNA (Li, Y., Oncogene 23: 9129-9135, 2004) and used for ¹²⁵I-Mesd binding (FIG. 1A). ¹²⁵I-Mesd (5 nM) reached maximal binding after 2 hours incubation at 4° C. with LRP6-expressing HT1080 cells (FIG. 1A). Inclusion of excess unlabeled Mesd (500 nM) completely eliminated this binding.
(A) Time course of ¹²⁵I-Mesd (5 nM) binding to LRP6-transduced HT1080 cells and the control cells. Assay was carried out for the indicated periods at 4° C. in the absence (total) or presence of 500 nM Mesd (non-specific). (B) Saturation binding of ¹²⁵I-Mesd to LRP6-transduced HT1080 cells and the control cells. Assay was carried out at indicated concentrations for 3 hours at 4° C. in the absence (total) or presence (non-specific) of 500 nM Mesd. (C) Scatchard plots of data in B. All values are the average of triple determinations with the s.d. indicated by error bars.

[4] = molecular target: T1, HA-tagged LRP6 on LRP6-transduced …; test: binding of truncated Mesd mutant to cell surface LRP6
[5] = molecular target: T1, HA-tagged LRP6 on LRP6-transduced …; test: 125I-Mesd (150-195) (5 nM) binding to LRP6-transduced HT1080 cells, 3 h at 4 C
Protocol: In this example, a truncated Mesd mutant containing the last 45 amino acids of C-terminal region was generated (FIG. 3A) and its binding affinity for LRP6 was then analyzed. […] (A) Binding analyses of ¹²⁵I-Mesd and its mutant Mesd (150-195) (5 nM) to LRP6-transduced HT1080 cells and control cells. (B) Binding analyses of ¹²⁵I-Mesd and its mutant Mesd (150-195) (5 nM) to LRP6-transduced HT1080 cells. Assays were carried out for 3 hours at 4° C. in the absence or presence of 500 nM Mesd or its mutant. Values are the means of triple determinations with the s.d. indicated by error bars.

[6] = molecular target: T1, HA-tagged LRP6 on LRP6-transduced …; test: conditioned medium on LRP6-transduced HT1080 cells, anti-Myc immunofluorescence
Protocol: To facilitate immunodetection, a c-Myc epitope was included at the C-terminus. The integrity of the subcloned DNA sequence was confirmed by DNA sequencing. Human DKK1-conditioned media were produced by transient transfection of HEK293 cells with pcDNADKK1-Myc in serum-free medium, and allowed to bind to LRP6-transduced HT1080 cells and control cells at room temperature for 60 minutes in the absence or presence of 1 μM Mesd. Cells were then fixed in 4% paraformaldehyde, labeled with anti-Myc monoclonal antibody and detected with Alexa-488 goat anti-mouse IgG. The immunofluorescence was detected by a laser-scanning confocal microscope (Olympus Fluoview 500).
RAP is a receptor antagonist for members of the LDLR family, and is able to inhibit the binding of most known ligands of the LDLR family members. DKK1 is an LRP6-specific ligand and antagonist. […] In these experiments, Serum-free conditioned medium was harvested from HEK293 cells transiently transfected with cDNA for human Myc-DKK1 and allowed to bind to LRP6-transduced HT1080 cells (B,C) and control cells (A) in the absence (A,B) or presence (C) of 1 μM Mesd. Cell-surface-bound Myc-tagged DKK proteins were fixed and detected by immunofluorescence staining with anti-Myc antibody. (D) DKK1 binding to cell surface LRP6 is inhibited by Mesd. […] (E) LRP6-mediated DKK1 degradation is inhibited by Mesd. […]

[7] = molecular target: T1, HA-tagged LRP6 on LRP6-transduced …; test: 125I-DKK1 (5 nM) binding to LRP6-transduced HT1080 cells, 3 h at 4 C
Protocol: RAP is a receptor antagonist for members of the LDLR family, and is able to inhibit the binding of most known ligands of the LDLR family members. DKK1 is an LRP6-specific ligand and antagonist. […] In these experiments, Serum-free conditioned medium was harvested from HEK293 cells transiently transfected with cDNA for human Myc-DKK1 and allowed to bind to LRP6-transduced HT1080 cells (B,C) and control cells (A) in the absence (A,B) or presence (C) of 1 μM Mesd. Cell-surface-bound Myc-tagged DKK proteins were fixed and detected by immunofluorescence staining with anti-Myc antibody. (D) DKK1 binding to cell surface LRP6 is inhibited by Mesd. […] (E) LRP6-mediated DKK1 degradation is inhibited by Mesd. LRP6-mediated […] (5 nM) degradation was carried out for 4 hours at 37° C. in the absence or presence of 500 nM RAP or 500 nM Mesd. Values are the means of triple determinations with the s.d. indicated by error bars. Bar, 10 μm. As expected, Myc-tagged DKK1 binds to LRP6 cells (FIG. 9B) but not to the control cells (FIG. 9A).

LRP5 (as used in Example 11), sequence (O75197 32-1615 limits assumed): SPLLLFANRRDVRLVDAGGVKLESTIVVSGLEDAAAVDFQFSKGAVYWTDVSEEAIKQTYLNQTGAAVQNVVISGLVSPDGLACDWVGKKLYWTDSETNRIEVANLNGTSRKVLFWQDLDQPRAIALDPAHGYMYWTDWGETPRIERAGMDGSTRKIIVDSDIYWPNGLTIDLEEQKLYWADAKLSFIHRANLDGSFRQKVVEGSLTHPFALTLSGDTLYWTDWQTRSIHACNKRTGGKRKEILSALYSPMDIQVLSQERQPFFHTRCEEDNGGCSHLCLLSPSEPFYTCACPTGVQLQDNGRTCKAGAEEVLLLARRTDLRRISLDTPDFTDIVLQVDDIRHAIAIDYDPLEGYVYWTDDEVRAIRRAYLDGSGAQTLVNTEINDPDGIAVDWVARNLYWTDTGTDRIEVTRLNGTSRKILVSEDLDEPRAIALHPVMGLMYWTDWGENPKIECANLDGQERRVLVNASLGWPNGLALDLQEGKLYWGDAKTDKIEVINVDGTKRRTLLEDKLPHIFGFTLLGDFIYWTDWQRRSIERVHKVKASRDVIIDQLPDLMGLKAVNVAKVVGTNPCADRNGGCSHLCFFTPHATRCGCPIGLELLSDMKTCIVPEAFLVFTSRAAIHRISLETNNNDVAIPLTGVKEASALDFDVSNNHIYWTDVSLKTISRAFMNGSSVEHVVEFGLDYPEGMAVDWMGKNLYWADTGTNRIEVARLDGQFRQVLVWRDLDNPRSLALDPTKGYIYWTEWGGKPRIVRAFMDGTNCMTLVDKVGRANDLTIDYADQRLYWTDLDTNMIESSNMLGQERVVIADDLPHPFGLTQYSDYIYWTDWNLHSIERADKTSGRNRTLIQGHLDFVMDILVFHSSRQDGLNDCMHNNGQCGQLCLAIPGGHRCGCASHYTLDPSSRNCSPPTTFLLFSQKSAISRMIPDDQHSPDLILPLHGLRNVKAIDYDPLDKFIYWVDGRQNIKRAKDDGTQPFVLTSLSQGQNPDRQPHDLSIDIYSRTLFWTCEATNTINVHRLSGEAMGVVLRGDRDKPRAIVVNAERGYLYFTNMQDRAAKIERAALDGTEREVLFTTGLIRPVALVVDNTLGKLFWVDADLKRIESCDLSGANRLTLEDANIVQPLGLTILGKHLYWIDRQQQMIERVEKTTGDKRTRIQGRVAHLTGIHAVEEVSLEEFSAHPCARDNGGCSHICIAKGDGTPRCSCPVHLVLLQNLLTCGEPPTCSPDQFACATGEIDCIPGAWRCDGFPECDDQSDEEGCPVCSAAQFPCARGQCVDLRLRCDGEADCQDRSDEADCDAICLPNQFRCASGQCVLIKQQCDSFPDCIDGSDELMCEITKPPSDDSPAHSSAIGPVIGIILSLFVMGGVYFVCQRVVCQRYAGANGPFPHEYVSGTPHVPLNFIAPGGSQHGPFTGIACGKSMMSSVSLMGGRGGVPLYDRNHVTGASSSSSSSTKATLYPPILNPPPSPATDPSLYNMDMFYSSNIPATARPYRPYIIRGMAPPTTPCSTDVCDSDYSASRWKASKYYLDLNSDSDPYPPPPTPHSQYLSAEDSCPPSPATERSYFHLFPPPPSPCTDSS

fold reduction of 125I-Mesd binding [1]: ~10 fold
fold reduction of 125I-DKK1 binding [2]: > 2 fold
Kd [3]: ~3.3 nM
B1: recombinant mouse Mesd protein (wild type) (other, not shown: small tags and cut ends)
chain: ADTPGEATPPPRKKKDIRDYNDADMARLLEQWEKDDDIEEGDLPEHKRPSAPIDFSKLDPGKPESILKMTKKGKTLMMFVTVSGNPTEKETEEITSLWQGSLFNANYDVQRFIVGSDRAIFMLRDGSYAWEIKDFLVSQDRCAEVTLEGQMYPGKGGGSKEKNKTKPEKAKKKEGDRKPRASKEDNRAGSRREDL
modifications: 125I-labelled (IODO-GEN method) where used as tracer
notes: Expressed in E. coli BL21(DE3) from pET-30a(+); 'All the recombinant Mesd proteins lack the Mesd signal peptide'; also called Mesd polypeptide

binding result [5]: binds
B3: Mesd (150-195) (peptide)
chain: QMYPGKGGGSKEKNKTKPEKAKKKEGDPKPRASKEDNRAGSRREDL
modifications: also: 125I-labelled where used as tracer
notes: also called truncated Mesd mutant containing the last 45 amino acids of C-terminal region; Mesd (150-195) peptide; not shown: N-terminal polyhistidine tail from pET-30a(+) if made like the other recombinant Mesd mutants

binding result [4]: no binding
B4: Mesd (12-155) (other)
chain: RKKKDIRDYNDADMARLLEQWEKDDDIEEGDLPEHKRPSAPIDFSKLDPGKPESILKMTKKGKTLMMFVTVSGNPTEKETEEITSLWQGSLFNANYDVQRFIVGSDRAIFMLRDGSYAWEIKDFLVSQDRCAEVTLEGQMYPGK
notes: also called truncated Mesd mutant lacking both the N-terminal and C-terminal regions; not shown: N-terminal polyhistidine tail from pET-30a(+)

Further lines, the binder ahead of its results:

B2: Mesd (12-195) (other)
chain: RKKKDIRDYNDADMARLLEQWEKDDDIEEGDLPEHKRPSAPIDFSKLDPGKPESILKMTKKGKTLMMFVTVSGNPTEKETEEITSLWQGSLFNANYDVQRFIVGSDRAIFMLRDGSYAWEIKDFLVSQDRCAEVTLEGQMYPGKGGGSKEKNKTKPEKAKKKEGDRKPRASKEDNRAGSRREDL
notes: also called truncated Mesd mutant lacking the N-terminal region; not shown: N-terminal polyhistidine tail from pET-30a(+)
binding result [4]: binds

B5: Mesd oligopeptide KGGGSKEKNKTKPEKAKKKEGDPKPRASKEDNRAGSR (peptide)
peptide: KGGGSKEKNKTKPEKAKKKEGDPKPRASKEDNRAGSR
notes: also called the oligopeptide
fold reduction of 125I-Mesd binding [1]: ~10 fold
fold reduction of 125I-DKK1 binding [2]: > 2 fold

B6: human Myc-tagged DKK1 (conditioned medium of HEK293 cells) (ligand, UniProt O94907 32-266, looked up, not shown: small tags and cut ends)
chain: TLNSVLNSNAIKNLPPPLGGAAGHPGSAVSAAPGILYPGGNKYQTIDNYQPYPCAEDEECGTDEYCASPTRGGDAGVQICLACRKRRKRCMRHAMCCPGNYCKNGICVSSDQNHFRGEIEETITESFGNDHSTLDGYSRRTTLSSKMYHTKGQEGSVCLRSSDCASGLCCARHFWSKICKPVLKEGQVCTKHRRKGSHGLEIFQRCYCGEGLSCRIQKDHHQASNSSRLHTCQRH
notes: also called Myc-DKK1; DKK1-Myc
binding result [6]: binds

B7: human recombinant DKK1 protein (ligand, UniProt O94907 32-266, looked up)
chain: B6 chain
modifications: 125I-labelled (IODO-GEN method)
notes: Bought
binding result [7]: binds
